According to publication PMC2668526 (Bioorganic & medicinal chemistry, 2008):
Several values for one entry are separate records, joined by “and”; a condition that tells them apart may be missing. Equal values may be shown once.

Tests used:
Experiment in all cases: purified protein, by the assay type
Conditions in all cases: other: O2 consumption, 5.0 mM ascorbate, pH 6.0, 37 °C
[1] = substrate: CC(C)(C)OC(=O)NCC(=O)O
[2] = substrate: CCCc1ccc(C(=O)NCC(=O)O)cc1
[3] = substrate: CCc1ccc(C(=O)NCC(=O)O)cc1
[4] = substrate: C[C@@H](NC(=O)OCc1ccccc1)C(=O)O
[5] = substrate: C[C@@H](NC(=O)c1ccccc1)C(=O)O
[6] = substrate: Cc1ccc(C(=O)NCC(=O)O)cc1
[7] = substrate: Cc1cccc(C(=O)NCC(=O)O)c1
[8] = substrate: Cc1ccccc1C(=O)NCC(=O)O
[9] = substrate: Nc1ccc(C(=O)NCC(=O)O)cc1
[10] = substrate: O=C(O)CNC(=O)/C=C/c1ccco1
[11] = substrate: O=C(O)CNC(=O)CCCCCCCc1ccccc1
[12] = substrate: O=C(O)CNC(=O)CCCCCc1ccccc1
[13] = substrate: O=C(O)CNC(=O)CCCc1ccccc1
[14] = substrate: O=C(O)CNC(=O)CCc1ccccc1
[15] = substrate: O=C(O)CNC(=O)CNC(=O)c1ccc([N+](=O)[O-])cc1
[16] = substrate: O=C(O)CNC(=O)CNC(=O)c1ccccc1
[17] = substrate: O=C(O)CNC(=O)Nc1ccccc1
[18] = substrate: O=C(O)CNC(=O)SCc1ccccc1
[19] = substrate: O=C(O)CNC(=O)[C@@H]1CCC(=O)N1
[20] = substrate: O=C(O)CNC(=O)c1ccc(Br)cc1
[21] = substrate: O=C(O)CNC(=O)c1ccc([N+](=O)[O-])cc1
[22] = substrate: O=C(O)CNC(=O)c1cccc(Cl)c1
[23] = substrate: O=C(O)CNC(=O)c1ccccc1
[24] = substrate: O=C(O)CNC(=O)c1cccnc1
[25] = substrate: O=C(O)CNC(=O)c1ccco1
[26] = substrate: O=C(O)CNC(=S)Cc1ccccc1

B1: rat PAM (Rattus norvegicus) (protein)
chain: FKETTRSFSNECLGTIGPVTPLDASDFALDIRMPGVTPKESDTYFCMSMRLPVDEEAFVIDFKPRASMDTVHHMLLFGCNMPSSTGSYWFCDEGTCTDKANILYAWARNAPPTRLPKGVGFRVGGETGSKYFVLQVHYGDISAFRDNHKDCSGVSVHLTRVPQPLIAGMYLMMSVDTVIPPGEKVVNADISCQYKMYPMHVFAYRVHTHHLGKVVSGYRVRNGQWTLIGRQNPQLPQAFYPVEHPVDVTFGDILAARCVFTGEGRTEATHIGGTSSDEMCNLYIMYYMEAKYALSFMTCTKNVAPDMFRTIPAEANIPIPVKPDMVMMHGHHKEAENKEKSALMQQPKQGEEEVLEQDFHVEEELDWPGVYLLPGQVSGVALDSKNNLVIFHRGDHVWDGNSFDSKFVYQQRGLGPIEEDTILVIDPNNAEILQSSGKNLFYLPHGLSIDTDGNYWVTDVALHQVFKLDPHSKEGPLLILGRSMQPGSDQNHFCQPTDVAVEPSTGAVFVSDGYCNSRIVQFSPSGKFVTQWGEESSGSSPRPGQFSVPHSLALVPHLDQLCVADRENGRIQCFKTDTKEFVREIKHASFGRNVFAISYIPGFLFAVNGKPYFGDQEPVQGFVMNFSSGEIIDVFKPVRKHFDMPHDIVASEDGTVYIGDAHTNTVWKFTLTEKMEHRSV
Km [1]: 3700 ± 200 µM
kcat [1]: 6.3 ± 0.3 s⁻¹
kcat/Km [1]: 1700 ± 50 M⁻¹ s⁻¹
Km [2]: 1200 ± 200 µM
kcat [2]: 5.1 ± 0.4 s⁻¹
kcat/Km [2]: 4200 ± 600 M⁻¹ s⁻¹
Km [3]: 1200 ± 200 µM
kcat [3]: 3.6 ± 0.3 s⁻¹
kcat/Km [3]: 3100 ± 500 M⁻¹ s⁻¹
Km [4]: 35000 ± 5000 µM
kcat [4]: 1.4 ± 0.1 s⁻¹
kcat/Km [4]: 41 ± 5 M⁻¹ s⁻¹
Km [5]: 84000 ± 23000 µM
kcat [5]: 0.27 ± 0.03 s⁻¹
kcat/Km [5]: 3.2 ± 0.6 M⁻¹ s⁻¹
Km [6]: 1800 ± 200 µM
kcat [6]: 5.7 ± 0.3 s⁻¹
kcat/Km [6]: 3200 ± 200 M⁻¹ s⁻¹
Km [7]: 1400 ± 100 µM
kcat [7]: 6.4 ± 0.2 s⁻¹
kcat/Km [7]: 4700 ± 200 M⁻¹ s⁻¹
Km [8]: 4300 ± 300 µM
kcat [8]: 7.9 ± 0.3 s⁻¹
kcat/Km [8]: 1800 ± 40 M⁻¹ s⁻¹
Km [9]: 2600 ± 200 µM
kcat [9]: 5.6 ± 0.2 s⁻¹
kcat/Km [9]: 2200 ± 100 M⁻¹ s⁻¹
Km [10]: 1200 ± 100 µM
kcat [10]: 3.4 ± 0.1 s⁻¹
kcat/Km [10]: 2800 ± 100 M⁻¹ s⁻¹
Km [11]: 0.10 ± 0.009 0.064 ± 0.006 mM
kcat [11]: 8 ± 0.3 s⁻¹
kcat/Km [11]: 76000 ± 4000 M⁻¹ s⁻¹
Km [12]: 0.051 ± 0.007 0.043 ± 0.005 mM
kcat [12]: 11 ± 0.4 s⁻¹
kcat/Km [12]: 200000 ± 20000 M⁻¹ s⁻¹
Km [13]: 160 ± 20 µM
kcat [13]: 11 ± 0.4 s⁻¹
kcat/Km [13]: 70000 ± 7000 M⁻¹ s⁻¹
Km [14]: 0.94 ± 0.1 0.55 ± 0.039 mM
kcat [14]: 9.9 ± 0.4 s⁻¹
kcat/Km [14]: 11000 ± 600 M⁻¹ s⁻¹
Km [15]: 110 ± 7 µM
kcat [15]: 8.7 ± 0.2 s⁻¹
kcat/Km [15]: 76000 ± 4000 M⁻¹ s⁻¹
Km [16]: 78 ± 11 µM
kcat [16]: 12 ± 0.8 s⁻¹
kcat/Km [16]: 160000 ± 10000 M⁻¹ s⁻¹
Km [17]: 0.36 ± 0.08 0.45 ± 0.05 mM
kcat [17]: 9.7 ± 0.9 s⁻¹
kcat/Km [17]: 27000 ± 4000 M⁻¹ s⁻¹
Km [18]: 59 ± 7 µM
kcat [18]: 0.69 ± 0.022 s⁻¹
kcat/Km [18]: 12000 ± 1400 M⁻¹ s⁻¹
Km [19]: 300 µM and 310 ± 30 µM
Km [20]: 520 ± 60 µM
kcat/Km [20]: 4900 ± 400 M⁻¹ s⁻¹
Km [21]: 470 ± 10 µM
kcat [21]: 4.2 ± 0.04 s⁻¹
kcat/Km [21]: 8900 ± 200 M⁻¹ s⁻¹
Km [22]: 2200 ± 200 µM
kcat [22]: 7.8 ± 0.3 s⁻¹
kcat/Km [22]: 3600 ± 200 M⁻¹ s⁻¹
Km [23]: 1300 ± 40 µM
kcat [23]: 8.2 ± 0.08 s⁻¹
kcat/Km [23]: 6200 ± 100 M⁻¹ s⁻¹
Km [24]: 1900 ± 100 µM
kcat [24]: 8 ± 0.2 s⁻¹
kcat/Km [24]: 4200 ± 200 M⁻¹ s⁻¹
Km [25]: 2700 ± 100 µM
kcat [25]: 7.5 ± 0.07 s⁻¹
kcat/Km [25]: 2800 ± 100 M⁻¹ s⁻¹
Km [26]: 24 ± 5 µM
kcat [26]: 2.4 ± 0.2 s⁻¹
kcat/Km [26]: 100000 ± 20000 M⁻¹ s⁻¹
